Molecular target: the molecule itself
Assay: crystal structure

B1: LecA, galactose-binding lectin of Pseudomonas aeruginosa (natural protein)
chain: AWKGEVLANNEAGQVTSIIYNPGDVITIVAAGWASYGPTQKWGPQGDREHPDQGLICHDAFCGALVMKIGNSGTIPVNTGLFRWVAPNNVQGAITLIYNDVPGTYGNNSGSFSVNIGKDQS
- stoichiometry N: 4

From article PMC9300185 (Chembiochem, 2021)
